Assay results: paper PMC10287724, “Structural basis of the interaction between BCL9-Pygo and LDB-SSBP complexes in assembling the Wnt enhanceosome” (Nature Communications, 2023)
Changes are numbered by the printed parent chain. One block for each molecule: values may come before it.

What was measured:
[1] = target: GST-hPygo2(58-84) (human) (UniProt Q9BRQ0); test: BLI; GST-Pygo2(58-84) wt or mutant loaded on GST biosensors, quenched with free GST; wt or mutant MBP-LDB1-SSBP2 in solution (0.03-30 uM); Octet RED96, 30 °C; KD from steady-state analysis
[2] = target: hBCL9ΔHD3-Pygo2 complex, Avi-tagged, biotinylated (human, UniProt O00512 1-1426; Q9BRQ0 1-406, lacking hBCL9(461–489) fragment, biotin on the Avi tag (BirA)); test: BLI
[3] = target: T1, Avi-tagged wt BCL9-Pygo2 complex, biotinylated (human, UniProt O00512 1-1426; Q9BRQ0 1-406, biotin on the Avi tag (BirA)); test: BLI; Octet RED96; biotinylated Avi-tagged BCL9-Pygo2 (wt or deletion) on SA biosensors, full-length LDB1-SSBP2 in solution at 1000, 300, 100, 30 nM; 30 °C; 20 mM Tris-HCl pH 8.0, 100 mM NaCl, 10 mM DTT, 10 mg/ml BSA; steady-state analysis; conditions: both partners purified
T1 construct: B-cell lymphoma 9 protein (BCL9), human, full length; Pygopus 2 (Pygo2), human, full length; also called Biotinylated BCL9-Pygo2; recombinant BCL9-Pygo; source: HEK293S GnTI- cells, co-transfected, purified (Flag beads, Superose 6 SEC), biotinylated with BirA; not shown: Avi, C-terminal, kept

[4] = target: T2, hBCL9ΔHD3-Pygo2 complex, Avi-tagged, biotinylated (human, UniProt O00512 1-1426; Q9BRQ0 1-406, lacking hBCL9(461–489) fragment, biotin on the Avi tag (BirA)); test: as above; conditions: both partners purified
T2 construct: B-cell lymphoma 9 protein (BCL9), human, full length lacking HD3 (461-489); Pygopus 2 (Pygo2), human, full length; also called hBCL9^△HD3-Pygo2; HD3-deleted BCL9; source: HEK293S GnTI- cells, co-transfected, purified (Flag beads, Superose 6 SEC), biotinylated with BirA; not shown: Avi, C-terminal, kept
T2 sequence (O00512 other isoform, or with tags, fused parts or gaps with the stated changes, chain 1 of 2): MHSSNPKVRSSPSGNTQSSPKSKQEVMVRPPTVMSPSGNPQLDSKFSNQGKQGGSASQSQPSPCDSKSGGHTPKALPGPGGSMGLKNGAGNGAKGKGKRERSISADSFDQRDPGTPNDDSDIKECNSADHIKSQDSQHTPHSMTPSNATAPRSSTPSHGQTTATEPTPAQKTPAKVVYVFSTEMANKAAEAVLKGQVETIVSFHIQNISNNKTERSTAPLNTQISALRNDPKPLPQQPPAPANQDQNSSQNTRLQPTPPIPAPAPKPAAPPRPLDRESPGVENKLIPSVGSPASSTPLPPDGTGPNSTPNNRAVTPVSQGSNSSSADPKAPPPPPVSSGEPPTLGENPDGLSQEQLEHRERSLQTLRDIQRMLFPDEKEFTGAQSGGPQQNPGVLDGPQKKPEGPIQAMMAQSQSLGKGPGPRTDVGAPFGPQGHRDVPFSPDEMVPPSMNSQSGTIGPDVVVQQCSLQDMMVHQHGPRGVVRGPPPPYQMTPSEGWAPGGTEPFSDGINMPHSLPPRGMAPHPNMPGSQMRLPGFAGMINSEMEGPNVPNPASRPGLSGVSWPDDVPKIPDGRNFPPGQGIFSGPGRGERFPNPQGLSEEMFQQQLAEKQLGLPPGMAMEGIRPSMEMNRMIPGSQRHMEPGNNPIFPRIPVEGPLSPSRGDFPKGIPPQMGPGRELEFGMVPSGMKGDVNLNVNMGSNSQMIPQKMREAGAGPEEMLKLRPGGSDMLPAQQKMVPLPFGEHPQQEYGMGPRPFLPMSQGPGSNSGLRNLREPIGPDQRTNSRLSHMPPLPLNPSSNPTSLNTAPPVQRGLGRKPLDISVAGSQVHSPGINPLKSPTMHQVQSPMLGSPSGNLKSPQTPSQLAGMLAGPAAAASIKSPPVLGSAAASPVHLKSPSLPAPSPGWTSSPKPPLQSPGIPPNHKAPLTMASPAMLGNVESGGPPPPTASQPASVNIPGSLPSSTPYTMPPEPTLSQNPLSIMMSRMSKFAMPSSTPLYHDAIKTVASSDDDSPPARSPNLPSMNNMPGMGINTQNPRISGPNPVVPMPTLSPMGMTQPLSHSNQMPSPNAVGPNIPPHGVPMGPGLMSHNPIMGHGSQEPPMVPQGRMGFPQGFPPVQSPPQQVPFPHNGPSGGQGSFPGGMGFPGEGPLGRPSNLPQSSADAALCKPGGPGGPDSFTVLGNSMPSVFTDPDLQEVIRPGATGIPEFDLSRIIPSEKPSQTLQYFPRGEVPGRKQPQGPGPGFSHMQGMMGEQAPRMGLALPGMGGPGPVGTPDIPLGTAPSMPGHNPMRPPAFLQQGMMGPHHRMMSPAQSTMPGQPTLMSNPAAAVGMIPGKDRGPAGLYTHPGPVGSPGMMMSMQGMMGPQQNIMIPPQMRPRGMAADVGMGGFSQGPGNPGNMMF
T2 sequence (Q9BRQ0 whole entry, stated change not applied, chain 2 of 2, the tested form may be a part): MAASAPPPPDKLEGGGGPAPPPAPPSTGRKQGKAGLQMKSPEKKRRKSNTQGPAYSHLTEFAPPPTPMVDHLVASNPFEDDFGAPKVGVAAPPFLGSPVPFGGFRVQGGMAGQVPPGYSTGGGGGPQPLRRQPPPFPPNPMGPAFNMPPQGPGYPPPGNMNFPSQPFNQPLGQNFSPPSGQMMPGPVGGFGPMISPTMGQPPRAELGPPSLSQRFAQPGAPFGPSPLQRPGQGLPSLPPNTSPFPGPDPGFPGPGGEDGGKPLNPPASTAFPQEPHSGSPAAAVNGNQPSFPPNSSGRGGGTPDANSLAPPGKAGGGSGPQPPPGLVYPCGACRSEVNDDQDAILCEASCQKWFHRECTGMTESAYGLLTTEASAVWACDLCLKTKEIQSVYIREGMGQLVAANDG

[5] = target: the molecule itself; test: crystal structure; Pygo2(58–84) peptide incubated with LDB1-SSBP2 (co-expressed, co-purified) at 5:1; hanging drop, 100 mM Li2SO4, 100 mM sodium citrate pH 5.6, 1% PEG400, 10 mM DTT, microseeding; 2.45 Å
[6] = target: T3, MBP-LDB1(56–285)-SSBP2(1–94) complex, SSBP2 Y72A (human, UniProt Q86U70 56-285; P81877 1-94, Y72A); test: BLI
T3 sequence 1: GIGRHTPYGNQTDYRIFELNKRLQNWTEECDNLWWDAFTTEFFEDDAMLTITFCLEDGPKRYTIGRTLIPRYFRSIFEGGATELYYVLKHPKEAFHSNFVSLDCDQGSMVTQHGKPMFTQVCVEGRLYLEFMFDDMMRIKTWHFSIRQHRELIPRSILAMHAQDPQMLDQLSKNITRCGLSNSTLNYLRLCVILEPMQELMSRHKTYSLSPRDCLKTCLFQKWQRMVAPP
T3 sequence 2: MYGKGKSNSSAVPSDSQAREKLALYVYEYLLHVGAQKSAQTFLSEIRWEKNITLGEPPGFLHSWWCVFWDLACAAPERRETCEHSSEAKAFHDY

T1 sequence (O00512 whole entry, chain 1 of 2): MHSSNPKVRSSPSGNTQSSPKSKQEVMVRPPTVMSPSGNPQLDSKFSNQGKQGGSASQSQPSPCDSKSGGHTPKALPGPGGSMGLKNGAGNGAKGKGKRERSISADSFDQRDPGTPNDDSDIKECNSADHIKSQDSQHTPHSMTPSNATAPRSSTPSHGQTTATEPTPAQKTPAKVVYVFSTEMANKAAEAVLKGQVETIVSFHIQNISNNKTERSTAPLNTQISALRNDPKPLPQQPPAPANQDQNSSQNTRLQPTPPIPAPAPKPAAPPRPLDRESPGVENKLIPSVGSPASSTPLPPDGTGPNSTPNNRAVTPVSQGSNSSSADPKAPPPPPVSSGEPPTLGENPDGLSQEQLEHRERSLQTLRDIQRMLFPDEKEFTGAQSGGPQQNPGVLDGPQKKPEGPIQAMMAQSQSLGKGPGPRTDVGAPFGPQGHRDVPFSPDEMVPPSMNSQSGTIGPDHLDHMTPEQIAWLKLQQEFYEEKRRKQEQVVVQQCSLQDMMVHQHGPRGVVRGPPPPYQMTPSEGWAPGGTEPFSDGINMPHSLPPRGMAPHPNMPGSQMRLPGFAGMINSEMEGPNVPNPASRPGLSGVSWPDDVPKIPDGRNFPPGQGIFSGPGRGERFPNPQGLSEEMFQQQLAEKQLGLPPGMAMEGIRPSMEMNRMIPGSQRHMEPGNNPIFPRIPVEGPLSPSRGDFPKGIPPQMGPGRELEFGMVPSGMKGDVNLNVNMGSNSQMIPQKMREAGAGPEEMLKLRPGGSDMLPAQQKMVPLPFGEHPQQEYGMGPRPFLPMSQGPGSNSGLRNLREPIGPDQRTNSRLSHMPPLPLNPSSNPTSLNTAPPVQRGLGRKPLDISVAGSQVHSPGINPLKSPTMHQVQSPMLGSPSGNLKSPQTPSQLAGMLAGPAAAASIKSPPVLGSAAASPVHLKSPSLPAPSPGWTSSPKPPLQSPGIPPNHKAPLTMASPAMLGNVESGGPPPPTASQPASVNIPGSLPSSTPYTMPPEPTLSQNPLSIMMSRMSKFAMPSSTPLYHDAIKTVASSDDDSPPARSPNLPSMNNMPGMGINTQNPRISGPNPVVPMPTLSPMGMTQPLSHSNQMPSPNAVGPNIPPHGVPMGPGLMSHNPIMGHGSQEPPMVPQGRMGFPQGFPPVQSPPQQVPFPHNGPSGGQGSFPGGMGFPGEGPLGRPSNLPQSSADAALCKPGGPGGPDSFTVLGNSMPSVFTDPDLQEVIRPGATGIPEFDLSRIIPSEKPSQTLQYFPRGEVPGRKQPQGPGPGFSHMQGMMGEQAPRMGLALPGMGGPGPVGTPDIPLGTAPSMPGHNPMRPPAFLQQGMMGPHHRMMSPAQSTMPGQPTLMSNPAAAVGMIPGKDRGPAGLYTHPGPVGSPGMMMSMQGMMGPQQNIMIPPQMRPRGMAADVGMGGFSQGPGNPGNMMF
T1 sequence (Q9BRQ0 whole entry, chain 2 of 2): as the sequence (Q9BRQ0 whole entry, stated change not applied, chain 2 of 2, the tested form may be a part) above

- Kd [1]: 22 µM
Molecule: MBP-LDB1(56-285)-SSBP2(1-94) Y72A complex (from UniProt Q86U70 56-285; P81877 1-94)

- Kd [2]: 0.039 µM
- Kd [3]: 0.032 µM
- binding result [4]: binds
B1: LDB1-SSBP2 complex (full-length human proteins) (complex)
chain 1: MSVGCACPGCSSKSFKLYSPKEPPNGNAFPPFHPGTMLDRDVGPTPMYPPTYLEPGIGRHTPYGNQTDYRIFELNKRLQNWTEECDNLWWDAFTTEFFEDDAMLTITFCLEDGPKRYTIGRTLIPRYFRSIFEGGATELYYVLKHPKEAFHSNFVSLDCDQGSMVTQHGKPMFTQVCVEGRLYLEFMFDDMMRIKTWHFSIRQHRELIPRSILAMHAQDPQMLDQLSKNITRCGLSNSTLNYLRLCVILEPMQELMSRHKTYSLSPRDCLKTCLFQKWQRMVAPPAEPTRQQPSKRRKRKMSGGSTMSSGGGNTNNSNSKKKSPASTFALSSQVPDVMVVGEPTLMGGEFGDEDERLITRLENTQFDAANGIDDEDSFNNSPALGANSPWNSKPPSSQESKSENPTSQASQ
chain 2: MYGKGKSNSSAVPSDSQAREKLALYVYEYLLHVGAQKSAQTFLSEIRWEKNITLGEPPGFLHSWWCVFWDLYCAAPERRETCEHSSEAKAFHDYSAAAAPSPVLGNIPPGDGMPVGPVPPGFFQPFMSPRYPGGPRPPLRIPNQALGGVPGSQPLLPSGMDPTRQQGHPNMGGPMQRMTPPRGMVPLGPQNYGGAMRPPLNALGGPGMPGMNMGPGGGRPWPNPTNANSIPYSSASPGNYVGPPGGGGPPGTPIMPSPADSTNSGDNMYTLMNAVPPGPNRPNFPMGPGSDGPMGGLGGMESHHMNGSLGSGDMDSISKNSPNNMSLSNQPGTPRDDGEMGGNFLNPFQSESYSPSMTMSV
notes: the discussion speaks of a 2:4 (LDB1:SSBP2) stoichiometry of the LDB1-SSBP2 core complex; not measured for the full-length complex; also called ChiLS; full-length LDB1-SSBP2 complex; source: HEK293S GnTI- cells, co-transfected, purified (Flag beads, Superose 6 SEC)

Further lines, the molecule ahead of its results:

B2: human SSBP2(1–94), tag removed (domain or fragment, UniProt P81877 1-94, looked up)
chain: T3 sequence 2 with A72Y
notes: chain of the crystallised complex; not shown: His, N-terminal, cleaved
- binding result [5]: binds

Molecule: LTEFAPPPTPMVDHLVASNPFEDDFGA (domain or fragment) [GST-Pygo2(58–84)]
- Kd [6]: 22 µM

B3: human LDB1(56–285), tags removed (domain or fragment, UniProt Q86U70 56-285, looked up)
chain: T3 sequence 1
notes: chain of the crystallised complex; source: E. coli BL21 (DE3), co-expressed with SSBP2(1–94), purified (Ni-NTA, TEV cleavage, HiTrap Q, Superdex 200); not shown: His, N-terminal, cleaved; MBP, N-terminal, cleaved
- binding result [5]: binds
